From article PMC5041007, “AglM and VNG1048G, Two Haloarchaeal UDP-Glucose Dehydrogenases, Show Different Salt-Related Behaviors” (Life, 2016)

Target: the molecule itself
Experiment: SEC; Hi-Load Superdex 200 16/60 directly after Ni-NTA chromatography; 2 M NaCl, 5 mM MgCl2, 50 mM Tris-HCl, pH 9.2; 1 mL/min; masses from a calibration curve of marker proteins (12.4-200 kDa)

B1: Haloferax volcanii AglM, C-terminally polyhistidine-tagged (enzyme, UniProt D4GYH5 1-430, looked up)
chain: MELSIIGSGYVGTTIAACFAELGHDVVNVDIDEDIVASLNDGQAPIHEPGLAELVERYAGDRLRATTDYDEILDTDATFLALPTPSTDDGSIDLGAMKTAATSLGETLARKDDSHLVVTKSTVVPRTTVDVIGPRIEEASGKRVGDGLDIAMNPEFLREGTAVDDFLSPDKIVLGAQTDRAYETLAEIFAPLVERAGNPPVVKTGISEAEMIKYANNAFLASKISLANDLANICKVFGVDSAEVLESIGLDSRIGSAFLGAGLGWGGSCFPKDTAAIIAAARAQGYEPRLLQAAVDVNDGQPERMLDLLRERFDLDGKRVAVLGLAFKPGTDDIRKSRAILLIQALLDAGADVVGYDPVATENMRERFPDIDYADSAADALANADAALVATDWDEFAALDDEFDAMRERIVIDGRRIVTRREGLDYESLV
notes: AglM, UDP-glucose dehydrogenase of Haloferax volcanii, 430 residues; gene amplified from genomic DNA with primers at the start and end of the gene; Calculated mass of the His-tagged chain close to 47 kDa; also called His-tagged AglM; UDP-glucose dehydrogenase; source: Hfx. volcanii cells transformed with pHis-AglM, purified (Ni-NTA, then size-exclusion chromatography); not shown: polyhistidine, …
- stoichiometry N: 12
